Assay results: article PMC9865957, “^68Ga-HBED-CC-WL-12 PET in Diagnosing and Differentiating Pancreatic Cancers in Murine Models” (Pharmaceuticals, 2023)

Key:
PANC02 cells = experiment: Cellular uptake assay, PANC02 cells; type: cell-based, murine; conditions: 1.5 kBq tracer, 45 min incubation with constant shaking, γ-counter, mean ± SD
Method: (§1) Murine pancreatic cancer cell PANC02 and human glioma cancer cell U87MG were obtained from Tongpai Biotechnology Co., LTD. The cells were cultured in DMEM medium containing 10% fetal bovine serum (FBS) and 1% penicillin–streptomycin. The cells grew adherent when cultured at 37 °C, 5% CO2, and appropriate humidity.
(§2) PANC02 and U87MG cells incubated to a confluence of approximately 80% in a 10 cm Petri dish were digested, centrifugated, and separated to several EP tubes. Then, the cells were incubated with 1.5 kBq ^68Ga-WL12 in a state of constant shaking for 5, 15, 30, and 45 min. At each time point, precipitation of cells was collected after centrifugating and washing by PBS. The radioactivity for each sample was measured by a γ-counter and calculated as the percentage.

in vivo = conditions: female, C57BL/6, mouse, iv, 3.7 MBq, total radioactivity
Method: C57BL/6 female mice were obtained from Shanghai Lingchang Biotechnology Co., LTD, Shanghai, China. The animals were kept in the Animal Experiment Center of Shanghai Changhai Hospital of SPF level. Then, 1 × 10^6 PANC02 cells in 0.1 mL mixture of PBS and Matrigel at a 1:1 ratio was inoculated subcutaneous into the right trunk of the mice. When the tumor reached an average volume of 300–500 mm^3, in vivo experiments of tracer metabolism were performed.
All imaging acquisition was performed on a clinical PET-CT scanner (Biograph64, Siemens Healthcare, Erlangen, Germany). Before imaging, the model mice were injected with 50 μL sodium pentobarbital (3%) into the abdominal cavity for anesthesia. […] For quantification of tracer uptake, 3D regions of interest (ROI) were drawn on the muscle, liver, and tumor.

U87MG cells = experiment: Cellular uptake assay, U87MG cells; type: cell-based, human; conditions: 1.5 kBq tracer, 45 min incubation with constant shaking, γ-counter, mean ± SD
Method: as §1, §2

in vitro = conditions: 10% FBS (serum)
Method: The radiochemical purity of [^68Ga]-WL12 was determined by thin-layer chromatography (ITLC) using glass microfiber chromatography paper impregnated with a silica gel as the stationary phase and acetonitrile (50%) as the mobile phase. For the evaluation of in vitro stability, [^68Ga]-WL12 was incubated at 37 °C with saline and 10% serum, respectively, for 60 min. Aliquots (3.7 kBq) of each radiolabeled ligand were taken and analyzed by ITLC.

[1] = In vitro stability in saline (ITLC); type: physicochemical; conditions: 37 °C, read-out ITLC (silica gel paper, 50% acetonitrile), mean ± SD

SMILES: CCCC[C@H]1C(=O)N(C)[C@@H](CCCC)C(=O)N[C@@H](CCCNC(=O)CCc2ccc(O)c(CN(CCN(CC(=O)O)Cc3cc(CCC(=O)O)ccc3O)CC(=O)O)c2)C(=O)N[C@H](C(=O)NCC(N)=O)CSCC(=O)N[C@@H](Cc2ccc(O)cc2)C(=O)N(C)[C@@H](C)C(=O)N[C@@H](CC(N)=O)C(=O)N2CCC[C@H]2C(=O)N[C@@H](Cc2c[nH]cn2)C(=O)N[C@@H](CC(C)C)C(=O)N2C[C@H](O)C[C@H]2C(=O)N[C@@H](Cc2c[nH]c3ccccc23)C(=O)N[C@@H](CO)C(=O)N[C@@H](Cc2cn(C)c3ccccc23)C(=O)N1C [^68Ga-HBED-CC-WL12, metal not drawn]
- specific binding rate in PANC02 (PANC02 cells): 31.2 ± 9.4%
- SUV at 20 min (in vivo): 0.37 SUV
- SUV at 1.5 h (in vivo): 0.38 ± 0.02 SUV
- tissue to tissue ratio at 1.5 h (in vivo; tumor-to-liver (T/L) ratio based on SUVmax): 0.45 ± 0.03
- tissue to tissue ratio at 1.5 h (in vivo; tumor-to-muscle (T/M) ratio based on SUVmax): > 2
- specific binding rate in U87MG (U87MG cells): 37.7 ± 2.4%
- remaining at 1 h (in vitro): 56.5 ± 2.3%
- RCP after 60 min incubation in saline [1]: 92.5 ± 1.5%

SMILES: N=C(N)NCCC[C@@H]1NC(=O)[C@H](CCCCNC(=O)CC[C@H](NC(=O)CN2CCN(CC(=O)O)CCN(CC(=O)O)CCN(CC(=O)O)CC2)C(=O)NCCCC[C@@H]2NC(=O)[C@@H](Cc3ccccc3)NC(=O)[C@H](CC(=O)O)NC(=O)CNC(=O)[C@H](CCCNC(=N)N)NC2=O)NC(=O)[C@@H](Cc2ccccc2)NC(=O)[C@H](CC(=O)O)NC(=O)CNC1=O [^68Ga-RGD, metal not drawn, reference compound]
- SUV at 1 h (in vivo): < 0.05 SUV
